Test results taken from the RNAGym collection of RNA variant scans (doi:10.7554/elife.80360).

B1: CPEB3 Ribozyme (parent)
chain: GGGGGCCACAGCAGAAGCGUUCACGUCGCGGCCCCUGUCAGAUUCUGGUGAAUCUGCGAAUUCUGCUGU

Variants of: B1
Experiment: self-cleavage, relative activity (ratio to wild type); higher = more cleavage; co-transcriptional

Variant	self-cleavage
GGGGGCCACAGCAGAAGCGUUCACGUCGCGGCCUCUGUCAGAUUCUGGUGAAUCUGCGAAUUCUGGUGU	0.95
GGGGGCCACAGCAGAAGCGUUCACGUCGCGGCCGCUGUCAGAUUCUGGUGAAUCUGCGAAGUCUGCUGU	0.311
GGGGGCCACAGCAGAAGCGUUCACGUCGCGGCCGCUGUCAGAUUCUGGUGAAUCUGCGAAAUCUGCUGU	0.458
GGGGGCCACAGCAGAAGCGUUCACGUCGCGGCCGCUGUCAGAUUCUGGUGAAUCUGCGAAUUCUACUGU	0.58
GGGGGCCACAGCAGAAGCGUUCACGUCGCGGCCUCUGUCAGAUUCUGGUGAAUCUGCGAAUUCUUCUGU	0.824
GGGGGCCACAGCAGAAGCGUUCACGUCGCGGCCACUGUCAGAUACUGGUGAAUCUGCGAAUUCUGCUGU	0.511
GGGGGCCACAGCAGAAGCGUUCACGUCGCGGCCGCUGGCAGAUUCUGGUGAAUCUGCGAAUUCUGCUGU	0.202
GGGGGCCACAGCAGAAGCGUUCACGUCGCGGCCGCUGCCAGAUUCUGGUGAAUCUGCGAAUUCUGCUGU	0.441
GGGGGCCACAGCAGAAGCGUUCACGUCGCGGCCACUGUCAGAUUCAGGUGAAUCUGCGAAUUCUGCUGU	0.848
GGGGGCCACAGCAGAAGCGUUCACGUCGCGGCCACUGUCAGAUUCCGGUGAAUCUGCGAAUUCUGCUGU	0.829
GGGGGCCACAGCAGAAGCGUUCACGUCGCGGCCGCUGUCAGAUUCCGGUGAAUCUGCGAAUUCUGCUGU	0.625
GGGGGCCACAGCAGAAGCGUUCACGUCGCGGCCGCUGUCAGAUUCUGGUGAAUCUGCGAGUUCUGCUGU	0.407
GGGGGCCACAGCAGAAGCGUUCACGUCGCGGCCGCUGUCAGAUUCUGGUGAAUCUGCGACUUCUGCUGU	0.331
GGGGGCCACAGCAGAAGCGUUCACGUCGCGGCCGCUGUCAGAUUCUGGUGAAUCUGCGAUUUCUGCUGU	0.39
GGGGGCCACAGCAGAAGCGUUCACGUCGCGGCCGCUGUCAGAUUCUGGUGAAUCUGAGAAUUCUGCUGU	0.311
GGGGGCCACAGCAGAAGCGUUCACGUCGCGGCCGCUGUCAGAUUCUGGUGAAUCUGUGAAUUCUGCUGU	0.348
GGGGGCCACAGCAGAAGCGUUCACGUCGCGGCCUCUGUCAGAUUCUGGUGAAUCUGCGAAUUCUGCUUU	1.04
GGGGGCCACAGCAGAAGCGUUCACGUCGCGGCCGCUGUCAGAUUCUGGUGAAACUGCGAAUUCUGCUGU	0.569
GGGGGCCACAGCAGAAGCGUUCACGUCGCGGCCGCAGUCAGAUUCUGGUGAAUCUGCGAAUUCUGCUGU	0.192
GGGGGCCACAGCAGAAGCGUUCACGUCGCGGCCGCUGUCAGAUUCUGGUGAAUCUGCGAAUUCUGCUAU	0.931

Variant	self-cleavage
GGGGGCCACAGCAGAAGCGUUCACGUCGCGGCCGCUGUCAGAUUCUGGUGAAUCUGCGAAUUUUGCUGU	0.666
GGGGGCCACAGCAGAAGCGUUCACGUCGCGGCCGCUGUCAGAUUCUGGUGAAUCUGCGAAUUAUGCUGU	0.424
GGGGGCCACAGCAGAAGCGUUCACGUCGCGGCCGCUCUCAGAUUCUGGUGAAUCUGCGAAUUCUGCUGU	0.213
GGGGGCCACAGCAGAAGCGUUCACGUCGCGGCCGCUGUCAGAUUCUGGUGAAUCUGCCAAUUCUGCUGU	0.654
GGGGGCCACAGCAGAAGCGUUCACGUCGCGGCCGCUGUCAGAUUCUGGUGAAUCUGCAAAUUCUGCUGU	0.463
GGGGGCCACAGCAGAAGCGUUCACGUCGCGGCCGCUGUCAGAUUCUGGUGAAUCUGCUAAUUCUGCUGU	0.772
GGGGGCCACAGCAGAAGCGUUCACGUCGCGGCCACUGUCAGAUUCUGGUGAAUCUGCGAAUUCUGCCGU	0.938
GGGGGCCACAGCAGAAGCGUUCACGUCGCGGCCACUGUCAGAUUCUGGUGAAUCUGCGAAUUCUGCAGU	0.883
GGGGGCCACAGCAGAAGCGUUCACGUCGCGGCCACUGUCAGAUUCUGGUGAAUCUGCGAAUUCUGCGGU	0.903
GGGGGCCACAGCAGAAGCGUUCACGUCGCGGCCUCUGUCAGAUUCUGCUGAAUCUGCGAAUUCUGCUGU	0.974
GGGGGCCACAGCAGAAGCGUUCACGUCGCGGCCUCUGUCAGAUUCUGAUGAAUCUGCGAAUUCUGCUGU	0.986
GGGGGCCACAGCAGAAGCGUUCACGUCGCGGCCUCUGUCAGAUUCUGGUGAGUCUGCGAAUUCUGCUGU	1.01
GGGGGCCACAGCAGAAGCGUUCACGUCGCGGCCGCUGUCAGAUUCUGGUGAAUCUGCGAAUUCUGCAGU	0.847
GGGGGCCACAGCAGAAGCGUUCACGUCGCGGCCACUGUCAGAUUCUGGGGAAUCUGCGAAUUCUGCUGU	0.865
GGGGGCCACAGCAGAAGCGUUCACGUCGCGGCCUCUGUCAGAUUCUGGUGAAUCUGCGUAUUCUGCUGU	0.778
GGGGGCCACAGCAGAAGCGUUCACGUCGCGGCCACUGUCAGAUUCUGGUGAAUCUGCGAAUUCGGCUGU	0.629
GGGGGCCACAGCAGAAGCGUUCACGUCGCGGCCUCUGUCAGAUUCUGGUGAAUCUGCUAAUUCUGCUGU	1
GGGGGCCACAGCAGAAGCGUUCACGUCGCGGCCUCUGUCAGAUUCUGGUGAAUCUGCCAAUUCUGCUGU	0.995
GGGGGCCACAGCAGAAGCGUUCACGUCGCGGCCUCUGUCAGAUUCUGGUGAAUCUGCAAAUUCUGCUGU	0.92
